We go through two molecules from patent US20210032299A1 (Eli Lilly, published 2021).

Starred links: 1 amine or outer side, 2 acyl side, 3 side chain; linkers in the order of their positions; H or OH if unused. Non-standard residues stand in square brackets, D forms with d. Groups on a side chain read outwards from the residue. No end group written: not given here. *: point of attachment. C20 diacid = O=C(O)CCCCCCCCCCCCCCCCCCC(=O)*; γGlu = O=C(O)[C@H](CCC(=O)[*:2])N[*:1]; 4Pal = N[C@@H](Cc1ccncc1)C(=O)O; αMeL = CC(C)C[C@](C)(N)C(=O)O; AEEA = NCCOCCOCC(=O)O; Aib = CC(C)(N)C(=O)O

Experiment [1] addresses T1, human glucose-dependent insulinotropic polypeptide (GIP) receptor (human, UniProt P48546 22-466).
T1 construct: whole, on cells; Assayed as crude membranes of stably transfected CHO cells; also called hGIPR; human GIP receptor
T1 sequence (looked up): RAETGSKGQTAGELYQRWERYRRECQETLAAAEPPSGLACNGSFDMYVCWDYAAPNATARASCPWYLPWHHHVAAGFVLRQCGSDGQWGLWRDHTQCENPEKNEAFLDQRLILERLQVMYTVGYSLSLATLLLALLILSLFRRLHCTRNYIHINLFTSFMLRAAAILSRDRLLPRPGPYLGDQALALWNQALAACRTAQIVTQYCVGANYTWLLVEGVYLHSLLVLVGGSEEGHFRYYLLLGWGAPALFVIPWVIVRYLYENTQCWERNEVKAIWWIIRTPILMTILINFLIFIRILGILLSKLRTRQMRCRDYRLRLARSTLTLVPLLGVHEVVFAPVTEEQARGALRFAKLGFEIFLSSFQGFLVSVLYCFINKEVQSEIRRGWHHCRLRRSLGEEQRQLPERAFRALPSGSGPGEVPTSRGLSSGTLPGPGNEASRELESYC
Briefly: SPA, displacement of [125I]-GIP from hGIPR membranes, 0.1% bacitracin.

Another experiment has as its target T2, human glucagon receptor (human, UniProt P47871 26-477).
T2 construct: whole, on cells; Assayed as crude membranes of stably transfected HEK293 cells; also called hGcgR; GcgR
Briefly: SPA, displacement of [125I]-Gcg from hGcgR membranes, 0.1% bacitracin. The procedure, abridged:
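Binding buffer: 25 mM HEPES pH 7.4, 2.5 mM CaCl₂, 1 mM MgCl₂, 0.003% Tween-20, protease inhibitors without EDTA. Counted by scintillation after 12 h incubation/settling at room temperature. Four-parameter nonlinear fit; Kᵢ given as geometric mean ± SEM of independent replicates run on different days.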

Another experiment deals with T3, human GLP-1 receptor (human, UniProt P43220 24-463).
T3 construct: whole, on cells; Assayed as crude membranes of stably transfected HEK293 cells; also called hGLP1R; hGLP-1R
As to the kind of experiment: SPA, displacement of [125I]-GLP-1 from hGLP-1R membranes, 0.1% bacitracin. The procedure, abridged:
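Binding buffer: 25 mM HEPES pH 7.4, 2.5 mM CaCl₂, 1 mM MgCl₂, 0.1% bacitracin, 0.003% Tween-20, protease inhibitors without EDTA. Four-parameter nonlinear regression; Kᵢ given as geometric mean ± SEM, n = independent replicates run on different days.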

T2 sequence (P47871 26-477): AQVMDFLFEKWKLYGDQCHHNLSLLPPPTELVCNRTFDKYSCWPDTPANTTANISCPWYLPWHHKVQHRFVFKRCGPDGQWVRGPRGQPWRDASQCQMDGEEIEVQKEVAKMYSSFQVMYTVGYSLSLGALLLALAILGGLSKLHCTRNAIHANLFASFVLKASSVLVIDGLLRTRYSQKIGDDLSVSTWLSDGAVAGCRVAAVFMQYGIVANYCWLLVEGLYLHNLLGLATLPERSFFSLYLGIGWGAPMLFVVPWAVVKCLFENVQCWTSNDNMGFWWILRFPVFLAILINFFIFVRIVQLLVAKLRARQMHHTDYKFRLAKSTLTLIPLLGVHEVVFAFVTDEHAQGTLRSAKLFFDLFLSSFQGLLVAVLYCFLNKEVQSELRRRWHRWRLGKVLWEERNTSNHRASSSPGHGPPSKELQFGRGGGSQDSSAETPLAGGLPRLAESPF

B1: Example 59 (peptide)
peptide: Y[Aib]EGTFISDYSI[αMeL]LDKK([AEEA-AEEA-γGlu-C20 diacid])HQ[Aib]EFVE[4Pal]LLAAGPSSGAPPPS-NH2
modifications: N-terminus assumed
SMILES: CC[C@H](C)[C@H](NC(=O)[C@H](Cc1ccccc1)NC(=O)[C@@H](NC(=O)CNC(=O)[C@H](CCC(=O)O)NC(=O)C(C)(C)NC(=O)[C@@H](N)Cc1ccc(O)cc1)[C@@H](C)O)C(=O)N[C@@H](CO)C(=O)N[C@@H](CC(=O)O)C(=O)N[C@@H](Cc1ccc(O)cc1)C(=O)N[C@@H](CO)C(=O)N[C@H](C(=O)N[C@@](C)(CC(C)C)C(=O)N[C@@H](CC(C)C)C(=O)N[C@@H](CC(=O)O)C(=O)N[C@@H](CCCCN)C(=O)N[C@@H](CCCCNC(=O)COCCOCCNC(=O)COCCOCCNC(=O)CC[C@H](NC(=O)CCCCCCCCCCCCCCCCCCC(=O)O)C(=O)O)C(=O)N[C@@H](Cc1c[nH]cn1)C(=O)N[C@@H](CCC(N)=O)C(=O)NC(C)(C)C(=O)N[C@@H](CCC(=O)O)C(=O)N[C@@H](Cc1ccccc1)C(=O)N[C@H](C(=O)N[C@@H](CCC(=O)O)C(=O)N[C@@H](Cc1ccncc1)C(=O)N[C@@H](CC(C)C)C(=O)N[C@@H](CC(C)C)C(=O)N[C@@H](C)C(=O)N[C@@H](C)C(=O)NCC(=O)N1CCC[C@H]1C(=O)N[C@@H](CO)C(=O)N[C@@H](CO)C(=O)NCC(=O)N[C@@H](C)C(=O)N1CCC[C@H]1C(=O)N1CCC[C@H]1C(=O)N1CCC[C@H]1C(=O)N[C@@H](CO)C(N)=O)C(C)C)[C@@H](C)CC
On to B1, for which the Ki came out at 0.0148 nM in experiment [1], 230 nM in the experiment with human glucagon receptor and 109 nM with human GLP-1 receptor.

B2: Example 70 (peptide)
peptide: Y[Aib]EGTFISDYSI[αMeL]LDKK([AEEA-AEEA-γGlu-C20 diacid])HQ[Aib]DFVE[4Pal]LLATGPSSGAPPPS-NH2
modifications: N-terminus assumed
SMILES: CC[C@H](C)[C@H](NC(=O)[C@H](Cc1ccccc1)NC(=O)[C@@H](NC(=O)CNC(=O)[C@H](CCC(=O)O)NC(=O)C(C)(C)NC(=O)[C@@H](N)Cc1ccc(O)cc1)[C@@H](C)O)C(=O)N[C@@H](CO)C(=O)N[C@@H](CC(=O)O)C(=O)N[C@@H](Cc1ccc(O)cc1)C(=O)N[C@@H](CO)C(=O)N[C@H](C(=O)N[C@@](C)(CC(C)C)C(=O)N[C@@H](CC(C)C)C(=O)N[C@@H](CC(=O)O)C(=O)N[C@@H](CCCCN)C(=O)N[C@@H](CCCCNC(=O)COCCOCCNC(=O)COCCOCCNC(=O)CC[C@H](NC(=O)CCCCCCCCCCCCCCCCCCC(=O)O)C(=O)O)C(=O)N[C@@H](Cc1c[nH]cn1)C(=O)N[C@@H](CCC(N)=O)C(=O)NC(C)(C)C(=O)N[C@@H](CC(=O)O)C(=O)N[C@@H](Cc1ccccc1)C(=O)N[C@H](C(=O)N[C@@H](CCC(=O)O)C(=O)N[C@@H](Cc1ccncc1)C(=O)N[C@@H](CC(C)C)C(=O)N[C@@H](CC(C)C)C(=O)N[C@@H](C)C(=O)N[C@H](C(=O)NCC(=O)N1CCC[C@H]1C(=O)N[C@@H](CO)C(=O)N[C@@H](CO)C(=O)NCC(=O)N[C@@H](C)C(=O)N1CCC[C@H]1C(=O)N1CCC[C@H]1C(=O)N1CCC[C@H]1C(=O)N[C@@H](CO)C(N)=O)[C@@H](C)O)C(C)C)[C@@H](C)CC
Take B2: the Ki in experiment [1] amounted to 0.0421 nM; in the experiment with human glucagon receptor, 857 nM; with human GLP-1 receptor, 570 nM.
